Where “and” joins values, the source holds several entries; their conditions need not be identical. Identical values can stand only once. Each block holds one binder with its values, some of them ahead of it.
Assays:
[1] = molecular target: T1, mutant β′-COP (D437A/D450A), residues 1–604, untagged (yeast (S. cerevisiae), UniProt P41811 1-604, D437A | D450A); experiment: ITC
T1 sequence (looked up): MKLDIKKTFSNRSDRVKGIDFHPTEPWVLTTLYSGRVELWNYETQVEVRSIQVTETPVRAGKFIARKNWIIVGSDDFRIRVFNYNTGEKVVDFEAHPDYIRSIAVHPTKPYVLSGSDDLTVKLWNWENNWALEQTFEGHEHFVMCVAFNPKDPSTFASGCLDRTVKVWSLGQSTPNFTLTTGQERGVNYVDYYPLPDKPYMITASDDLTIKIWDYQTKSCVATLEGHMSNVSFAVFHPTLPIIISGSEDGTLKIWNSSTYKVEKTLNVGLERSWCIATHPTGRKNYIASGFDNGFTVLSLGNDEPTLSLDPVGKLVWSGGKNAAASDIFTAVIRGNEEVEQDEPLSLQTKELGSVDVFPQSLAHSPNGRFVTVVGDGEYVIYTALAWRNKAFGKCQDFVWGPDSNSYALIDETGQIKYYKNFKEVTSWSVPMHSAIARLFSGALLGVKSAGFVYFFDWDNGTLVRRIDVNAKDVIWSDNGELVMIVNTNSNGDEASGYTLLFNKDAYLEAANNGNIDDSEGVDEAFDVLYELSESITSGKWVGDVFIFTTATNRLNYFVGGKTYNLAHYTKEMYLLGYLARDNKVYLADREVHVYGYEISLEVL

[2] = molecular target: T2, β′-COP D98A/D117A, residues 1–604, untagged (yeast (S. cerevisiae), UniProt P41811 1-604, D98A | D117A); experiment: ITC
T2 sequence (looked up): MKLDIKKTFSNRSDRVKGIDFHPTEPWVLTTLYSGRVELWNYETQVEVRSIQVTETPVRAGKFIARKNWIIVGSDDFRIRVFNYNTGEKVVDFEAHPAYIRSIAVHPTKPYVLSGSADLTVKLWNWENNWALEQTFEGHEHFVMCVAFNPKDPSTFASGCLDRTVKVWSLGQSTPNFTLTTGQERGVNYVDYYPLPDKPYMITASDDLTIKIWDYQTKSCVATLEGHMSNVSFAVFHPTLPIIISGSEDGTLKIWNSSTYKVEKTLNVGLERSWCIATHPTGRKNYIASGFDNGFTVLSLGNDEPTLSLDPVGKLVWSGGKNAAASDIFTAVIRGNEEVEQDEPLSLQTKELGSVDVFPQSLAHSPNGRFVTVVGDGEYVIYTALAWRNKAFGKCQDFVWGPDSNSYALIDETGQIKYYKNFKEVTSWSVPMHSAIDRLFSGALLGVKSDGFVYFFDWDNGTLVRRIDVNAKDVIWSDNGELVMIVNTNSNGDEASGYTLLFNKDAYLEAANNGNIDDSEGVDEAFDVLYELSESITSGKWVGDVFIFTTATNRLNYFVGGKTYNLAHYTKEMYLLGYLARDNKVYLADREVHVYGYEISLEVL

[3] = molecular target: T3, untagged β′-COP residues 1–604 (yeast (S. cerevisiae), UniProt P41811 1-604); experiment: ITC
T3 sequence (looked up): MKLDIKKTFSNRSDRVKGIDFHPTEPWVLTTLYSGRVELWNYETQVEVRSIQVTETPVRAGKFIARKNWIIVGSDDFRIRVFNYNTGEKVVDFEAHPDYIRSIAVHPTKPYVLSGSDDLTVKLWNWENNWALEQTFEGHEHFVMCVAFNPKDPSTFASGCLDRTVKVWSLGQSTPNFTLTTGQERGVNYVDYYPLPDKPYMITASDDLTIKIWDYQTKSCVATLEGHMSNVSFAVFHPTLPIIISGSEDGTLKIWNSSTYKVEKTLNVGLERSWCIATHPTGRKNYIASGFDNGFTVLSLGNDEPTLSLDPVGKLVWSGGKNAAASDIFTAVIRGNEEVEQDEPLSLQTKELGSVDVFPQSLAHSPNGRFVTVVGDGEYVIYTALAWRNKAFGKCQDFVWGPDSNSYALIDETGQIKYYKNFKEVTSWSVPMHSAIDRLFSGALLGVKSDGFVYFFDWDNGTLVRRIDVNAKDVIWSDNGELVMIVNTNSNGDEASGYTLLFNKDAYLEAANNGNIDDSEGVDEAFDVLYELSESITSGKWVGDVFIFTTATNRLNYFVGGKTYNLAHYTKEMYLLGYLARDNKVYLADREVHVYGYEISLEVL

β′604-H6 = molecular target: T4, β′604-H6 (yeast (S. cerevisiae), UniProt P41811 1-604); experiment: pull-down
T4 sequence (looked up): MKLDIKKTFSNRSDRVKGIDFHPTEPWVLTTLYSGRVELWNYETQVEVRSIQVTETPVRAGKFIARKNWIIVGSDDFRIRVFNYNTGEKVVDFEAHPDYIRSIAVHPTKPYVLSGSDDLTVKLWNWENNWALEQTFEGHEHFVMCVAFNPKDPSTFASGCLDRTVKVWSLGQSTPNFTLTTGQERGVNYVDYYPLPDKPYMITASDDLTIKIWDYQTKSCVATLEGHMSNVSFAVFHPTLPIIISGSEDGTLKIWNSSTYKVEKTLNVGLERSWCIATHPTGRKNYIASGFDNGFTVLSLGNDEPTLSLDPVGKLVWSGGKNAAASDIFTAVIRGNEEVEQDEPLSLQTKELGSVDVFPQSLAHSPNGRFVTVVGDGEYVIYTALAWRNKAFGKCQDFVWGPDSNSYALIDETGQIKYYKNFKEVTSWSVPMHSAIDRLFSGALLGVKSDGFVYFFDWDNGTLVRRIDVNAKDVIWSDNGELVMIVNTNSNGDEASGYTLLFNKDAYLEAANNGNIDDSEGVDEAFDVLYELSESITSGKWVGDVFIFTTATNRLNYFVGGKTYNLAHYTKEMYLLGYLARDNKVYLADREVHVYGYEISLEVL

[4] = molecular target: T5, β′-COP residues 1–604 with a C-terminal GST tag (yeast (S. cerevisiae), UniProt P41811 1-604); experiment: pull-down
T5 sequence (looked up): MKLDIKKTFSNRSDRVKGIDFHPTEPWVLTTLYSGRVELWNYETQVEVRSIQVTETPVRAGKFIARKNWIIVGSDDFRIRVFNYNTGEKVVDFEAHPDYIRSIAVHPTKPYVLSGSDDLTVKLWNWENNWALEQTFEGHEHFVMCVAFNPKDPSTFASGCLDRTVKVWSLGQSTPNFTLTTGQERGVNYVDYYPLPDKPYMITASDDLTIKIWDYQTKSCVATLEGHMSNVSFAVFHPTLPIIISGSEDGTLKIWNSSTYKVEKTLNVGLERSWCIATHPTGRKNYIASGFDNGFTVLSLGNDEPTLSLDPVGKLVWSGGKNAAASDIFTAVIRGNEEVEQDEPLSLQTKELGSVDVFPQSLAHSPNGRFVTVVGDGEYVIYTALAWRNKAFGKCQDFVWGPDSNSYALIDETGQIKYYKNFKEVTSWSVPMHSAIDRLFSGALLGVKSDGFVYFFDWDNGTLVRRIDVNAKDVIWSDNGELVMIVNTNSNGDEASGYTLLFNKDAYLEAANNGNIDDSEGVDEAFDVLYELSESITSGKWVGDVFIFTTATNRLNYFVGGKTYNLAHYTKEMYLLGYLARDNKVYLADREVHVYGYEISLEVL

[5] = molecular target: T6, N-terminal β′-COP propeller (residues 1–304), untagged (yeast (S. cerevisiae), UniProt P41811 1-304); experiment: ITC
T6 sequence (looked up): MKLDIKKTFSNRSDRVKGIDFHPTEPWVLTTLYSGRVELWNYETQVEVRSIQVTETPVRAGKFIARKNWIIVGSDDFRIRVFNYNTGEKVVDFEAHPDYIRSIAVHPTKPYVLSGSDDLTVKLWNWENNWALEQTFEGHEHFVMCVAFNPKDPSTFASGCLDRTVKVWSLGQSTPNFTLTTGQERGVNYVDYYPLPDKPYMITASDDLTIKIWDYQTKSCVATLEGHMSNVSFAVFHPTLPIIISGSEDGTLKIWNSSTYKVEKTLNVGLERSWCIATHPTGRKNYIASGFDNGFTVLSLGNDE

- Kd [1]: 18 µM
- binding result [2]: binds
- Kd [3]: 0.6 µM and 0.8 to 6 µM
- stoichiometry N [3]: 1
B1: untagged Glo3 residues 230–290 (domain or fragment, yeast (S. cerevisiae), UniProt P38682 230-290, looked up)
chain: SQDKKKHSILSSSRKPTRLTAKKVDKSQAEDLFDQFKKEAQQEKEDEFTNSSSSTKIRQND

- Kd [3]: ~12 µM
B2: Glo3 (residues 230–290) K233E (domain or fragment, yeast (S. cerevisiae), UniProt P38682 230-290, looked up)
chain: SQDEKKHSILSSSRKPTRLTAKKVDKSQAEDLFDQFKKEAQQEKEDEFTNSSSSTKIRQND

- Kd [3]: < 300 µM
B3: Glo3 (residues 230–290) K233E/K234E/K235E (domain or fragment, yeast (S. cerevisiae), UniProt P38682 230-290, looked up)
chain: SQDEEEHSILSSSRKPTRLTAKKVDKSQAEDLFDQFKKEAQQEKEDEFTNSSSSTKIRQND

- Kd [3]: ~12 µM
B4: Glo3 (residues 230–290) K251E/K252E/K255E (domain or fragment, yeast (S. cerevisiae), UniProt P38682 230-290, looked up)
chain: SQDKKKHSILSSSRKPTRLTAEEVDESQAEDLFDQFKKEAQQEKEDEFTNSSSSTKIRQND

- binding result (β′604-H6): binds
B5: GST-BoCCS, Glo3 residues 208–383 (domain or fragment, yeast (S. cerevisiae), UniProt P38682 208-383, looked up)
chain: KTTVTKTRSSILTASRKKPVLNSQDKKKHSILSSSRKPTRLTAKKVDKSQAEDLFDQFKKEAQQEKEDEFTNSSSSTKIRQNDYDSQFMNNSKGNNNNSIDDINTQPDEFNDFLNDTSNSFDTTRKEQQDTLTPKFAKLGFGMTMNDANDLAKQQKESQKIAQGPRYTGRIAERYG

- binding result [4]: binds
B6: full-length Glo3-H8 (natural protein)
chain: not shown

- binding result [3]: binds
B7: Glo3 residues 220–290, untagged (domain or fragment, yeast (S. cerevisiae), UniProt P38682 220-290, looked up)
chain: TASRKKPVLNSQDKKKHSILSSSRKPTRLTAKKVDKSQAEDLFDQFKKEAQQEKEDEFTNSSSSTKIRQND

- binding result [3]: binds
Binder: SQDKKKHSILSSSRKPTRLTAKKVDKSQAEDLFDQFKKEAQ (domain or fragment, yeast (S. cerevisiae), UniProt P38682 230-270, looked up) [Glo3 residues 230–270, untagged]

- Kd [5]: < 300 µM
- Kd [3]: ~1 µM
- stoichiometry N [3]: 1
B8: untagged Glo3 BoCCS fragment (residues 230–300) (domain or fragment, yeast (S. cerevisiae), UniProt P38682 230-300, looked up)
chain: SQDKKKHSILSSSRKPTRLTAKKVDKSQAEDLFDQFKKEAQQEKEDEFTNSSSSTKIRQNDYDSQFMNNSK

Source: article PMC9960064 (The Journal of Cell Biology, 2023)
